# According to publication PMC7932925:
# Experiments:
# [1] = target: FLAG-tagged VEGF^121 (WT), a soluble splicing variant of VEGFA; assay: non-reducing SDS-PAGE and FLAG immunoblot; FLAG-VEGF^121 immunopurified with FLAG-M1 antibody from conditioned media of transfected ERO1 KO HeLa (and ERO1 KO MDAMB231^m) cells; reducing against non-reducing immunoblot; disulfide-bonded homodimer against monomer
# [2] = target: FLAG-tagged VEGF^121 (WT), a soluble splicing variant of VEGFA; assay: non-reducing SDS-PAGE and FLAG immunoblot; FLAG-VEGF^121 immunopurified with FLAG-M1 antibody from conditioned media of transfected WT HeLa (and WT MDAMB231^m) cells; reducing against non-reducing immunoblot; disulfide-bonded homodimer against monomer
substance,measurement,setting,value
"FLAG-tagged VEGF^121 (WT), a soluble splicing variant of VEGFA (ligand)",monomer as percent of the total secreted VEGF^121,[1],80%
same,stoichiometry N,[2],2
